Measured values published in patent US20230190944A1.
Values belong to the binder of their own block, whether it stands above or below them. Starred links: 1 amine or outer side, 2 acyl side, 3 side chain; linkers in the order of their positions; H or OH if unused. Non-standard residues stand in square brackets, D forms with d. Groups on a side chain read outwards from the residue. *: point of attachment. C20 diacid = O=C(O)CCCCCCCCCCCCCCCCCCC(=O)*; γGlu = O=C(O)[C@H](CCC(=O)[*:2])N[*:1]; AEEA = NCCOCCOCC(=O)O; Aib = CC(C)(N)C(=O)O

How the values were obtained:
[1] = target: Human CT receptor (calcitonin receptor) (human), P30988; assay: cell-based or functional assay
Sequence of Human CT receptor (calcitonin receptor) (human), P30988 (P30988 25-474): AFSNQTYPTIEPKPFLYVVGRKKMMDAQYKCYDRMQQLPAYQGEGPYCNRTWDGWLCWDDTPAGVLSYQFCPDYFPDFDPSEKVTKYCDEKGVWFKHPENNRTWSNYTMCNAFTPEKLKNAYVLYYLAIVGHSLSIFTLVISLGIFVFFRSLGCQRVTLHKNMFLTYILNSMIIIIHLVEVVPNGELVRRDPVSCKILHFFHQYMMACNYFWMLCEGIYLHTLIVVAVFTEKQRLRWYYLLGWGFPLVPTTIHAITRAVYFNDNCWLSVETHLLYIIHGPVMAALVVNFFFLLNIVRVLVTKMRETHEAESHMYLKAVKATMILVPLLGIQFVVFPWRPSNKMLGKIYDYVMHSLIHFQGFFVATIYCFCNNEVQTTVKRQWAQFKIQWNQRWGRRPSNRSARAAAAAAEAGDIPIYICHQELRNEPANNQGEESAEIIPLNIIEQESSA

[2] = target: Human AMY1 receptor (amylin receptor 1) (human), P30988; assay: cell-based or functional assay
Sequence of Human AMY1 receptor (amylin receptor 1) (human), P30988 (P30988 25-474, chain 1 of 2): as the sequence (P30988 25-474) above
Sequence of Human AMY1 receptor (amylin receptor 1) (human), P30988 (O60894 27-148, chain 2 of 2, further chain): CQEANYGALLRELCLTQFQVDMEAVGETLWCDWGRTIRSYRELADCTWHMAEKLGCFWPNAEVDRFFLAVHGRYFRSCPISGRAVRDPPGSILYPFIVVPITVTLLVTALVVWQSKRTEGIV

hCT cAMP EC50 (pM) [1]: 40.9 pM
hAMY1 cAMP EC50 (pM) [2]: 49.4 pM
B1: Compound II (peptide)
peptide: Ac-ASHLSTAVLGK([AEEA-AEEA-γGlu-C20 diacid])LS[Aib]ELHKLEDYPRTDVGAESP-NH2
SMILES: CC(=O)N[C@@H](C)C(=O)N[C@@H](CO)C(=O)N[C@@H](Cc1c[nH]cn1)C(=O)N[C@@H](CC(C)C)C(=O)N[C@@H](CO)C(=O)N[C@H](C(=O)N[C@@H](C)C(=O)N[C@H](C(=O)N[C@@H](CC(C)C)C(=O)NCC(=O)N[C@@H](CCCCNC(=O)COCCOCCNC(=O)COCCOCCNC(=O)CC[C@H](NC(=O)CCCCCCCCCCCCCCCCCCC(=O)O)C(=O)O)C(=O)N[C@@H](CC(C)C)C(=O)N[C@@H](CO)C(=O)NC(C)(C)C(=O)N[C@@H](CCC(=O)O)C(=O)N[C@@H](CC(C)C)C(=O)N[C@@H](Cc1c[nH]cn1)C(=O)N[C@@H](CCCCN)C(=O)N[C@@H](CC(C)C)C(=O)N[C@@H](CCC(=O)O)C(=O)N[C@@H](CC(=O)O)C(=O)N[C@@H](Cc1ccc(O)cc1)C(=O)N1CCC[C@H]1C(=O)N[C@@H](CCCNC(=N)N)C(=O)N[C@H](C(=O)N[C@@H](CC(=O)O)C(=O)N[C@H](C(=O)NCC(=O)N[C@@H](C)C(=O)N[C@@H](CCC(=O)O)C(=O)N[C@@H](CO)C(=O)N1CCC[C@H]1C(N)=O)C(C)C)[C@@H](C)O)C(C)C)[C@@H](C)O

hCT cAMP EC50 (pM) [1]: 31.7 pM
hAMY1 cAMP EC50 (pM) [2]: 49.3 pM
B2: Compound I (peptide)
peptide: Ac-ASHLSTAVLGKLS[Aib]ELHKLEDYPRTDVGAESP-NH2
SMILES: CC(=O)N[C@@H](C)C(=O)N[C@@H](CO)C(=O)N[C@@H](Cc1c[nH]cn1)C(=O)N[C@@H](CC(C)C)C(=O)N[C@@H](CO)C(=O)N[C@H](C(=O)N[C@@H](C)C(=O)N[C@H](C(=O)N[C@@H](CC(C)C)C(=O)NCC(=O)N[C@@H](CCCCN)C(=O)N[C@@H](CC(C)C)C(=O)N[C@@H](CO)C(=O)NC(C)(C)C(=O)N[C@@H](CCC(=O)O)C(=O)N[C@@H](CC(C)C)C(=O)N[C@@H](Cc1c[nH]cn1)C(=O)N[C@@H](CCCCN)C(=O)N[C@@H](CC(C)C)C(=O)N[C@@H](CCC(=O)O)C(=O)N[C@@H](CC(=O)O)C(=O)N[C@@H](Cc1ccc(O)cc1)C(=O)N1CCC[C@H]1C(=O)N[C@@H](CCCNC(=N)N)C(=O)N[C@H](C(=O)N[C@@H](CC(=O)O)C(=O)N[C@H](C(=O)NCC(=O)N[C@@H](C)C(=O)N[C@@H](CCC(=O)O)C(=O)N[C@@H](CO)C(=O)N1CCC[C@H]1C(N)=O)C(C)C)[C@@H](C)O)C(C)C)[C@@H](C)O
